Target: the molecule itself
Assay: SEC-MALS

B1: Full-length human dehydrodolichyl diphosphate synthase (DHDDS) (enzyme, UniProt Q86SQ9 1-333, looked up)
chain: MSWIKEGELSLWERFCANIIKAGPMPKHIAFIMDGNRRYAKKCQVERQEGHSQGFNKLAETLRWCLNLGILEVTVYAFSIENFKRSKSEVDGLMDLARQKFSRLMEEKEKLQKHGVCIRVLGDLHLLPLDLQELIAQAVQATKNYNKCFLNVCFAYTSRHEISNAVREMAWGVEQGLLDPSDISESLLDKCLYTNRSPHPDILIRTSGEVRLSDFLLWQTSHSCLVFQPVLWPEYTFWNLFEAILQFQMNHSVLQKARDMYAEERKRQQLERDQATVTEQLLREGLQASGDAQLRRTRLHKLSARREERVQGFLQALELKRADWLARLGTASA
stoichiometry N: 2

— publication doi:10.1101/787119 (bioRxiv, 2019)
